Assay results taken from patent publication US6060451.

How the values were obtained:
human α-thrombin (human) [1] = biological target: human α-thrombin (human) (UniProt P00734); assay: inhibition of thrombin-mediated hydrolysis of Tosyl-Gly-Pro-Arg-AMC (fluorogenic amidolytic assay)
[2] = biological target: bovine α-thrombin (bovine) (UniProt P00735); assay: as above
thrombin = assay: Ki, antithrombin activity in vitro (amidolytic assay of thrombin activity)
human α-thrombin (human) [3] = biological target: human α-thrombin (human) (UniProt P00734)
[4] = biological target: bovine α-thrombin (bovine) (UniProt P00735)

Substance | Ki (human α-thrombin (human) [1]) [nM] | further results
P73 [D-Phe^45, Ala^47 ]hirudin^45-65 (from UniProt P01050) (peptide) | 41 | –
P51 hirudin^45-55 (from UniProt P01050) (peptide) | 110 | Ki [2]: 720 nM
r-Hirudin HV2 (from UniProt P09945) | 0.00038 | Ki (thrombin): 0.0004 nM
P53 [D-Phe^45, Arg^47 ]hirudin^45-65 (peptide) | – | IC50, inhibition of fibrin clot formation (human α-thrombin (human) [3]): 4 nM; IC50, inhibition of fibrin clot formation [4]: 70 nM
P54 [Thr^45, Arg^47, D-Pro^48 ]hirudin^45-65 (from UniProt P01050) (peptide) | 72 | –
